# Source: patent US9156883B2, “Binding molecules for human factor VIII and factor VIII-like proteins” (DYAX CORP., priority 1999, dated 2015)
# Positions of bridges follow the written chain, without caps; N, C: chain ends. No end group written: not given here. *: point of attachment. NHNH2 = NN*
# Target: T1, REFACTO® (Homo sapiens, UniProt P00451)
# T1 construct: amino acids 1-743 and 1638 through 2332 of human factor VIII; purchased Genetics Institute, Inc. (Cambridge, Mass.)
# T1 sequence (P00451 20-762): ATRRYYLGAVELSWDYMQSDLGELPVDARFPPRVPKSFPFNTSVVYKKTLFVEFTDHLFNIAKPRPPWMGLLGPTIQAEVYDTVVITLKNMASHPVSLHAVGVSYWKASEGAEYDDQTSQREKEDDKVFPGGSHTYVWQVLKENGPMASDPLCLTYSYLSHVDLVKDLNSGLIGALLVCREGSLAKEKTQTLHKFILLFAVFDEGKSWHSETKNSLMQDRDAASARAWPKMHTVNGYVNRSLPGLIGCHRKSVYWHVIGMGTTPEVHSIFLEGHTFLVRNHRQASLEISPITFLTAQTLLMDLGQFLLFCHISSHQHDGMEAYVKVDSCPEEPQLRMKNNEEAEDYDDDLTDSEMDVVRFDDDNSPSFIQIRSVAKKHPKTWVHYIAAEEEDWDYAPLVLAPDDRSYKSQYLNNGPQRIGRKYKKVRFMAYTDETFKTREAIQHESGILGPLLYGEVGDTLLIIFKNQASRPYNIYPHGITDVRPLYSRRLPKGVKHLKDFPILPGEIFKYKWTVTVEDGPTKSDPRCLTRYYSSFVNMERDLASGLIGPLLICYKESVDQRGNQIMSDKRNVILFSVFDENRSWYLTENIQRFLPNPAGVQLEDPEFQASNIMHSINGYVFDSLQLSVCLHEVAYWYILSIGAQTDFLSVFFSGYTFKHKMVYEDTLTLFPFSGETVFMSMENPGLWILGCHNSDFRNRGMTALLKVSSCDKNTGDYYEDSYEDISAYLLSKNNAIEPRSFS
# T1 sequence (P00451 1657-2351): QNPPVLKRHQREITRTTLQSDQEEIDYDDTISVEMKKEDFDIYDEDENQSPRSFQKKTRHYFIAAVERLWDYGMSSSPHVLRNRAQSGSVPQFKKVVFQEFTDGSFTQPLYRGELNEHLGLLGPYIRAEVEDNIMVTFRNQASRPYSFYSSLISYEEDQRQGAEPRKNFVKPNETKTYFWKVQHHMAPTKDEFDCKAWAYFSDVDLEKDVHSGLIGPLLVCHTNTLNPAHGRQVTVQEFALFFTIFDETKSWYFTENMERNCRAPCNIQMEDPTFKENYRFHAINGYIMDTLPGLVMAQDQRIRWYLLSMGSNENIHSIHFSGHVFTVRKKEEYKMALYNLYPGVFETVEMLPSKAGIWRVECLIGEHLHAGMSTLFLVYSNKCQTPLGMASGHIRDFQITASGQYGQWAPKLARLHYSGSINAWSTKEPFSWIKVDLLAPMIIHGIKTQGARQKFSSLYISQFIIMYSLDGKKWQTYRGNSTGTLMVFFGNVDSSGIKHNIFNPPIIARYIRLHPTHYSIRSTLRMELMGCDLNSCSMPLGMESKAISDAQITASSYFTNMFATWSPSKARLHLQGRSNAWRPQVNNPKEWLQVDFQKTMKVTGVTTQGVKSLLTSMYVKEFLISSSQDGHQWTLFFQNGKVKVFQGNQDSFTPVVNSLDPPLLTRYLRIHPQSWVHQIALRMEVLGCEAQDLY
# Assay: Batch binding and elution of REFACTO® with immobilized polypeptide ligands (factor VIII sandwich ELISA)
# Conditions: for % of Input Recovered in: Eluate: Buffer A, 50% ethylene glycol, pH 6.3, 15 minutes; for % of Input Recovered in: Unbound: REFACTO® ~50 U in Buffer 1, 1 h RT, supernatant after binding; for % of Input Recovered in: Total: Unbound, Wash and Eluate fractions together; for % of Input Recovered in: Wash: one wash with Buffer 1
# Source text: A commercial ELISA kit (IMUBIND fVIII ELISA kit, Product #884, American, Inc., Greenwich, Conn.) developed to detect factor VIII was used according to the manufacturer's specifications in order to detect both the REFACTO® and the nhfVIII targets. The kit employs a sandwich ELISA assay in which the target is captured by an immobilized monoclonal antibody and the captured target is detected with a second monoclonal antibody-horseradish peroxidase (HRP) conjugate. Addition of the peroxidase substrate and its subsequent reaction with the HRP produces a blue color (detected at 630 nm) which changes to yellow (detected at 450 nm) on addition of the 0.5N sulfuric acid stop solution. Color response is calibrated with factor VIII standards provided by the manufacturer.
# REFACTO® binding was tested in Buffer 1. The binding of both REFACTO® and nfhVIII were tested using three affinity resins prepared as in Example II, using the affinity peptides CS-454, CS-456, and CS-458 immobilized on Toyopearl Formyl 650-M medium. Ligand density for each polypeptide was 1.79 mg/ml (0.67 μmol/ml), 3.69 mg/ml ([…]) and 3.15 mg/ml (1.17 μmol/ml) respectively.
# For each of the three immobilized peptides tested, peptide-beads from […] of a 50% slurry of Toyopearl-coupled polypeptide suspension were centrifuged briefly (30 seconds at 2000×g at room temperature), the supernatant fluid was removed, and the beads (pellets) were washed two times. For each wash, the beads were resuspended in 500 μl of Buffer 1 and centrifuged as before.
# The stock solution of REFACTO® was diluted to a final concentration of 200 U/ml in Buffer 1 and 250 μl of the diluted solution (˜50 U total) was added to a washed pellet of each of the peptide-beads. The suspension was incubated on an end-over-end mixer at RT for one hour, after which binding period the beads were pelleted by centrifugation (30 seconds, 2000×g) and the supernatant solutions, representing the unbound fraction (“Unbound” in Table 7, below), were removed and retained for assay of unbound factor VIII activity.
# The pelleted beads were washed one time by adding 250 μl of Buffer 1, mixed briefly and the suspension centrifuged as before. The supernatant solutions (“Wash” in Table 7) were removed and retained for assay of factor VIII activity.
# The washed pellets were resuspended in 250 μl of Buffer A (20 mM L-Histidine-HCl, 250 mM NaCl, 20 mM CaCl2, 0.01% Tween 80, 50% ethylene glycol, pH 6.3) and incubated on an end-over-end mixer for 15 minutes at room temperature. At the end of the elution period, the suspensions were centrifuged as above. The supernatant solutions (“Eluate” in Table 7) were removed and retained for assay of eluted factor VIII activity.
# The starting (diluted) REFACTO® solution (Input) and each sample (Unbound, Wash, and Eluate) taken as described above were diluted 1:1400 in Assay Diluent (provided with kit), then subjected to ELISA using the commercial factor VIII assay kit.
% of Input Recovered in: Eluate [%],% of Input Recovered in: Unbound [%],% of Input Recovered in: Total [%],Substance,% of Input Recovered in: Wash [%]
47,20,76,AEGTGDFCWVFAFDHCHDPGPEGGGS-NHNH2 (disulfide 8-16 (inferred)) [CS-458],10
49,24,85,AEGTGDHLCGAWFRPCDADPGPEGGGS-NHNH2 (disulfide 9-16 (inferred)) [CS-454],–

Substance,% of Input Recovered in: Eluate [%],% of Input Recovered in: Unbound [%],% of Input Recovered in: Total [%],% of Input Recovered in: Wash [%]
AEGTGDFGCSWLFPCPFDPGPEGGGS-NHNH2 (disulfide 9-15 (inferred)) [CS-456],24,47,91,20
